Assay results: the supplement of paper PMC9732359
± gives the uncertainty stated by the source.

Test: protein stability index of a GFP-peptide fusion (yeast GPS) (PSI 1-4); higher = more stable; sorted into four equal gates, so the index is relative within each strain
Method in brief: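 Tiled 17-residue yeast protein peptides were fused downstream of GFP in a plasmid that also expresses Cherry, and the pooled library was carried in yeast. Mid-log cultures in leucine-free medium were sorted into four equal gates by GFP/Cherry fluorescence ratio, and plasmids from each gate were PCR-amplified and Illumina-sequenced, with reads assigned to strains by barcodes. The protein stability index for each peptide was each gate's read frequency times its gate number, summed.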

Row | Sequence | protein stability index (doa10∆) | protein stability index (pdr5∆) | protein stability index (san1∆) | protein stability index (ubr1∆)
1 | VLLHGASLGIGLAAMGS [RPN2] | 1.82 ± 0.071 | 1.9 ± 0.069 | 1.93 ± 0.072 | 1.56 ± 0.065
2 | VLMETKNTQSPQTPLVE [SNU114] | 2.95 ± 0.16 | 2.93 ± 0.12 | 2.67 ± 0.087 | 2.96 ± 0.11
3 | VLMGKNTMVRRAIRGFL [RPP0] | 3.27 ± 0.26 |  | 3.34 ± 0.17 | 
4 | VLQNVFKLVSTPSSNSN [MED1] | 1.44 ± 0.04 | 1.67 ± 0.041 | 1.5 ± 0.072 | 1.36 ± 0.038
5 | VLTYPEKVTRYNRHKLQ [RPO31] | 2.1 ± 0.055 | 1.6 ± 0.048 | 2.32 ± 0.052 | 1.43 ± 0.05
6 | VMKDIYKVENVTLYWNN [ESC2] | 1.42 ± 0.088 | 1.62 ± 0.08 | 1.47 ± 0.11 | 1.73 ± 0.084
7 | VMNKNQETAISVAKLFK [RPT6] | 2.24 ± 0.19 | 1.72 ± 0.19 |  | 
8 | VMSIESLVEVVFYRGMT [FAS1] | 1.89 ± 0.1 | 2.12 ± 0.06 | 1.39 ± 0.12 | 2.66 ± 0.097
9 | VNDRYQIPTPNNTVDPG [CSI1] | 1.44 ± 0.059 | 1.71 ± 0.075 | 1.71 ± 0.13 | 1.55 ± 0.048
10 | VNETEAILYTKPGHVLQ [YGR119C/NUP57] | 3 ± 0.15 | 3.12 ± 0.13 | 2.75 ± 0.13 | 3.66 ± 0.21
11 | VNGAKNLVVSGPPQSLY [FAS1] | 2.07 ± 0.1 | 1.78 ± 0.066 | 2.03 ± 0.088 | 2.2 ± 0.052
12 | VNLPGGILRRKSESDEL [RRP4] | 3.31 ± 0.15 | 3.29 ± 0.15 | 2.88 ± 0.1 | 3.29 ± 0.14
13 | VPRLFDLVKPKNPKFSN [SMC4] | 2.54 ± 0.052 | 2.62 ± 0.061 | 2.45 ± 0.091 | 2.81 ± 0.052
14 | VPVALKGQGPFTLTYDI [YMR129W/POM152] | 2.58 ± 0.096 | 2.95 ± 0.11 | 2.83 ± 0.069 | 2.8 ± 0.061
15 | VPVRSFKGHSHIVQDCT [ASC1] | 2.5 ± 0.073 | 3.11 ± 0.064 | 2.91 ± 0.081 | 2.83 ± 0.049
16 | VQDALLTNQLYKNHELL [SNF2] | 3.19 ± 0.068 | 3.1 ± 0.072 | 3.08 ± 0.044 | 3.14 ± 0.061
17 | VQGKNLLTNFHGMDFTT [RPS1A] | 3.42 ± 0.078 | 3.42 ± 0.055 | 3.22 ± 0.045 | 3.23 ± 0.052
18 | VQKDTAIIRLHPSIYTQ [POP1] | 2.73 ± 0.29 | 2.19 ± 0.11 |  | 1.88 ± 0.14
19 | VQMDKIRKIVRKDENQF [AAR2] | 3.25 ± 0.17 | 2.81 ± 0.18 |  | 
20 | VREHYLRSDIPCLSRSC [DIS3] | 2.6 ± 0.051 | 2.72 ± 0.051 | 2.59 ± 0.051 | 2.44 ± 0.033
21 | VRELVEKIDGMDVDSVK [RPC82] | 2.99 ± 0.19 | 3.41 ± 0.27 | 3.34 ± 0.11 | 3.3 ± 0.064
22 | VRIDKALELDDTVVSRV [ECM29] | 2.92 ± 0.11 | 2.91 ± 0.15 |  | 3.13 ± 0.097
23 | VRIPPDQFHRDTISAIT [RPC25] | 1.91 ± 0.042 | 2.43 ± 0.048 | 2.02 ± 0.064 | 1.8 ± 0.032
24 | VRNACKRLIAHDWLNAL [YCG1] | 2.74 ± 0.081 | 2.97 ± 0.1 | 2.83 ± 0.075 | 3.19 ± 0.064
25 | VRQLYKGKKYQPKDLRA [RPL35A] | 3.28 ± 0.21 | 3.17 ± 0.12 | 2.59 ± 0.098 | 2.92 ± 0.12
26 | VRSLLEVVQTGAKNIEI [PRE6] | 3.38 ± 0.14 | 3.29 ± 0.098 | 3.06 ± 0.074 | 3.21 ± 0.069
27 | VRTNRFDIIEESFKGLQ [ECM29] | 2.6 ± 0.099 | 2.47 ± 0.13 | 2.18 ± 0.12 | 2.26 ± 0.1

Row | Sequence | protein stability index (doa10∆) | protein stability index (pdr5∆) | protein stability index (san1∆) | protein stability index (ubr1∆)
28 | VRYEEKRELKQLLEKAP [BRR2] | 1.86 ± 0.093 | 2.35 ± 0.084 | 1.89 ± 0.18 | 2.4 ± 0.12
29 | VRYTTSVMPPNEVYSAY [DLS1] | 2.83 ± 0.062 | 3.12 ± 0.069 | 2.48 ± 0.059 | 2.9 ± 0.061
30 | VSANTPKSLNSNININV [SWI1] | 3.14 ± 0.11 | 2.64 ± 0.12 | 2.84 ± 0.12 | 2.87 ± 0.093
31 | VSDHLDAIYRELTKNPN [SMC1] | 2.87 ± 0.23 |  |  | 
32 | VSIKDSTGCVVGLSQPD [YMR129W/POM152] | 2.09 ± 0.047 | 2.32 ± 0.058 | 2.05 ± 0.066 | 2.28 ± 0.036
33 | VSIVKLDTQLITLLPSS [SNF12] | 1.73 ± 0.051 | 1.9 ± 0.05 | 1.95 ± 0.084 | 1.97 ± 0.051
34 | VSKFYDKINQLSVVKYL [RPN9] | 2.25 ± 0.12 | 1.75 ± 0.083 | 1.31 ± 0.11 | 1.7 ± 0.083
35 | VSKMEKAEKTLKSTKHS [SMC4] | 2.69 ± 0.052 | 2.42 ± 0.044 | 2.33 ± 0.042 | 2.83 ± 0.031
36 | VSLSQLLFIVGQVAIKT [YCS4] | 1.85 ± 0.062 | 2.27 ± 0.062 | 1.71 ± 0.088 | 2.13 ± 0.046
37 | VSNPLIQRFFALHYLVP [COB] | 1.86 ± 0.054 | 1.88 ± 0.059 | 2.32 ± 0.072 | 1.2 ± 0.041
38 | VSPTVGKLFSDIKVLKR [YIL149C/MLP2] | 2.96 ± 0.08 | 3.29 ± 0.077 | 3.11 ± 0.06 | 3.17 ± 0.039
39 | VSTSSGAAANNNDQKRQ [YJL041W/NSP1] | 3.37 ± 0.084 | 3.17 ± 0.073 | 3.27 ± 0.035 | 3.45 ± 0.069
40 | VTADTVILFDSDWNPQA [ISW2] | 3.08 ± 0.071 | 2.76 ± 0.058 | 2.81 ± 0.089 | 2.52 ± 0.044
41 | VTAEDFKQAKERVMKNK [RPT2] | 3.69 ± 0.23 | 3.52 ± 0.12 | 3.52 ± 0.11 | 3.42 ± 0.11
42 | VTALEVLSLGRPNLPTH [RGR1] | 2.93 ± 0.14 |  | 2.18 ± 0.14 | 2.33 ± 0.079
43 | VTIIEPKEEEPILAPSV [RPS3] | 3.09 ± 0.13 | 2.59 ± 0.22 | 3.01 ± 0.14 | 2.67 ± 0.13
44 | VTIWYRAPELLLGARHY [SSN3] | 1.9 ± 0.1 | 1.85 ± 0.096 | 2.07 ± 0.15 | 1.9 ± 0.072
45 | VTKITDMLLHKYYIVSS [SRB8] | 1.45 ± 0.076 | 1.14 ± 0.068 | 1.65 ± 0.15 | 1.57 ± 0.077
46 | VTKWTNQLTESASHFEQ [YJL041W/NSP1] | 2.85 ± 0.13 | 3.19 ± 0.099 | 3.16 ± 0.091 | 2.83 ± 0.098
47 | VTLASILTTAVGLVSPS [RPN1] | 1.98 ± 0.13 | 1.55 ± 0.081 | 2.25 ± 0.19 | 2.85 ± 0.087
48 | VTLRKSLYTNTSRKALE [RPL3] | 2.66 ± 0.069 | 2.26 ± 0.059 | 1.78 ± 0.078 | 1.78 ± 0.072
49 | VTNDDKSDDDDHTVDEI [SRB8] | 2.67 ± 0.077 | 2.8 ± 0.085 | 3.07 ± 0.094 | 3.01 ± 0.045
50 | VTRFDEKQIEELLDNCI [SRB6] | 2.9 ± 0.21 |  | 3.21 ± 0.16 | 3.33 ± 0.12
51 | VTVFLFMLILALFVFYS [COB] | 2.32 ± 0.067 | 1.8 ± 0.042 | 2.27 ± 0.057 | 1.99 ± 0.039
52 | VVARRSNSANVSSPESE [ITC1] | 3.19 ± 0.05 | 3.35 ± 0.053 | 3.25 ± 0.036 | 3.18 ± 0.035
53 | VVDRESDIPKTTVQVAE [PRE4] | 2.6 ± 0.11 | 2.99 ± 0.1 | 2.8 ± 0.13 | 3.06 ± 0.076
